Data as given in patent publication US20110262347A1 (SALK INSTITUTE FOR BIOLOGICAL STUDIES, published 2011).
No end group written: not given here. *: point of attachment. Biotin = O=C1N[C@H]2[C@H](CS[C@H]2CCCCC(=O)*)N1

T1: p32 protein from mouse liver mitochondria extracts (mouse, UniProt O35658 71-278)
T1 construct: Endogenous protein pulled down from detergent lysate of Balb/c mouse liver mitochondria; also called C1qBP; specific band below 36-kDa
T1 sequence (looked up): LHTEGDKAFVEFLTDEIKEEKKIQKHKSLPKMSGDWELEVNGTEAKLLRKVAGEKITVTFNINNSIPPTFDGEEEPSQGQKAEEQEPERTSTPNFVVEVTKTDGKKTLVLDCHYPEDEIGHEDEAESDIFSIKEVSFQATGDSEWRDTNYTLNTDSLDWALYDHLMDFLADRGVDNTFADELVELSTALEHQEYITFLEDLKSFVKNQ

T2: purified p32 protein
T2 chain: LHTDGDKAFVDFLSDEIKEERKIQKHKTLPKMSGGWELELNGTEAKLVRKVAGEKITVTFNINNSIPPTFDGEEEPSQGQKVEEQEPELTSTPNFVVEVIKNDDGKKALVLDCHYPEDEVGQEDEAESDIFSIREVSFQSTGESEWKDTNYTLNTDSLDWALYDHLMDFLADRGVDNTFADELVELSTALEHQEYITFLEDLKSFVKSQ

B1: CGKRK peptide (peptide)
peptide: CGKRK
notes: Synthetic pentapeptide; also called Cys-Gly-Lys-Arg-Lys; non-labeled CGKRK
B2: biotin-labeled CGKRK peptide (peptide)
peptide: Biotin-CGKRK
notes: Labeled form used in the ELISA-type assays on p32-coated wells, detected with streptavidin-HRP; also called biotin-CGKRK; biotin CGKRK

Key:
[1] = target: T1, p32 protein from mouse liver …; test: pull-down from mitochondria extracts, mass spectrometry
Procedure: Affinity chromatography. […] Gel bands excised from silver-stained gels were analyzed by MALDI-TOF mass spectrometry at the Burnham Institute for Medical Research Proteomics Resource.

[2] = target: T2, purified p32 protein; test: comparison of the filing's CGKRK-p32 affinity with a literature value for LyP-1
[3] = target: T2, purified p32 protein; test: saturation binding, ELISA-type: biotin-CGKRK on immobilized purified p32, streptavidin-HRP (FIG. 19)

Binder | binding result [1] | fold affinity relative to LyP-1 [2] [fold] | Kd [3] [µg/mL]
B1 | binds |  | 
B2 |  | 15 | 0.2
